± gives the uncertainty stated by the source.

The text below walks through data of the supplement of paper PMC7877785.

The series is described as follows: self-splicing fitness, log relative to wild type (ln ratio); higher = more splicing; Tetrahymena group I intron in knt gene, E. coli kanamycin selection, DiMSum; sequences stand for … in CUCUCU…GGAGGGAAAAGUUAUCAGGCAUGCACCUGGUAGCUAGUCUUUAAACCAAUAGAUUGCAUCGGUUUAAAAGGCAAGACCGUCAAAUUGCGGGAAAGGGGUCAACAGCCGUUCAGUACCAAGUCUCAGGGGAAACUUUGAGAUGGCCUUGCAAAGGGUAUGGUAAUAAGCUGACGGACAUGGUCCUAACCACGCAGCCAAGUCCUAAGUCAACAGAUCUUCUGUUGAUAUGGAUGCAGUUCACAGACUAAAUGUCGGUCGGGGAAGAUGUAUUCUUCUCAUAAGAUAUAGUCGGACCUCUCCUUAAUGGGAGCUAGCGGAUGAAGUGAUGCAACACUGGAGCCGCUGGGAACUAAUUUGUAUGCGAAAGUAUAUUGAUUAGUUUUGGAGUACUCGUGGUCG
The gist of the method: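 Colonies from six replicate transformations of E. coli BL21(DE3) were pooled and amplicon-sequenced on an Illumina HiSeq 2500. The library placed an intron with all eight P1ex-region nucleotides randomised inside the knt kanamycin-resistance gene on pET-22b(+), and cells grew overnight at 37°C or 30°C on LB agar with or without 25 μg/mL kanamycin (plus 100 μg/mL carbenicillin, 50 μM IPTG, 0.2% rhamnose). Fitness is the DiMSum error-weighted combination of wild-type-normalised replicate fold changes, kanamycin versus none.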

Consider GUAGAGCAAUAUUACGCAGC, for which the “self-splicing fitness (ln)” value reads like this: (30 °C) -0.915 ± 0.17; (37 °C) -2.37 ± 0.22.
Take GUAGAGCAAUAUUACGCCCG: the “self-splicing fitness (ln)” value is -2.15 ± 0.3 (30 °C) and -1.85 ± 0.3 (37 °C).
As to GUAGAGCAAUAUUACGCGCG, the “self-splicing fitness (ln)” value (30 °C) is -0.605 ± 0.07 and the “self-splicing fitness (ln)” value (37 °C) was -0.12 ± 0.094.
Turning to GUAGAGCAAUAUUACGGCGC, the “self-splicing fitness (ln)” value (30 °C) is -0.386 ± 0.18 and the “self-splicing fitness (ln)” value (37 °C) is -0.378 ± 0.22.
With GUAGAGCAAUAUUACGGCUG, the “self-splicing fitness (ln)” value runs as follows: (30 °C) -1.04 ± 0.13; (37 °C) -0.584 ± 0.14.
Turning to GUAGAGCAAUAUUACGGGAU, the “self-splicing fitness (ln)” value was -2.01 ± 0.098 (30 °C) and -1.19 ± 0.12 (37 °C).
For GUAGAGCAAUAUUACGGUAC, the “self-splicing fitness (ln)” value reads like this: (30 °C) -1.54 ± 0.12; (37 °C) 0.127 ± 0.14.
The like results for GUAGAGCAAUAUUACGGUGC were, in that order, -1.15 ± 0.13 and -1 ± 0.19.
As to GUAGAGCAAUAUUACGUAAC, the “self-splicing fitness (ln)” value by setting is: (30 °C) -0.96 ± 0.11; (37 °C) -0.246 ± 0.14.
As for GUAGAGCAAUAUUACGUACU, the “self-splicing fitness (ln)” value (30 °C) is -2.23 ± 0.24 and the “self-splicing fitness (ln)” value (37 °C) was -1.92 ± 0.24.
Take GUAGAGCAAUAUUACGUAGG: the “self-splicing fitness (ln)” value runs as follows: (30 °C) -3.28 ± 0.17; (37 °C) -1.96 ± 0.17.
The like results for GUAGAGCAAUAUUACGUAUG were, in that order, -3.88 ± 0.22 and -3.78 ± 0.23.
The corresponding values for GUAGAGCAAUAUUACGUCUG are -1.6 ± 0.15 and -1.58 ± 0.21.
On to GUAGAGCAAUAUUACGUCUU, for which the “self-splicing fitness (ln)” value runs as follows: (30 °C) -0.122 ± 0.075; (37 °C) 0.195 ± 0.083.
The like results for GUAGAGCAAUAUUACGUUCU were, in that order, -2.74 ± 0.12 and -0.917 ± 0.099.
Turning to GUAGAGCAAUAUUACGUUGU, the “self-splicing fitness (ln)” value is, setting by setting: (30 °C) -2.53 ± 0.3; (37 °C) -0.699 ± 0.29.
GUAUAGCAAUAUUACGAAAU: the “self-splicing fitness (ln)” value (30 °C) was -3.05 ± 0.25 and the “self-splicing fitness (ln)” value (37 °C) is -1.63 ± 0.22.
Regarding GUAUAGCAAUAUUACGAAUG, the “self-splicing fitness (ln)” value runs as follows: (30 °C) -3 ± 0.24; (37 °C) -2.32 ± 0.28.
The like results for GUAUAGCAAUAUUACGACGC were, in that order, -0.42 ± 0.16 and 0.113 ± 0.18.
Turning to GUAUAGCAAUAUUACGAGCA, the “self-splicing fitness (ln)” value was -2.06 ± 0.2 (30 °C) and -1.12 ± 0.16 (37 °C).
The like results for GUAUAGCAAUAUUACGAUGA were, in that order, -1.62 ± 0.16 and -0.697 ± 0.14.
As to GUAUAGCAAUAUUACGCACA, the “self-splicing fitness (ln)” value is, setting by setting: (30 °C) -1.11 ± 0.13; (37 °C) 0.279 ± 0.16.
In the case of GUAUAGCAAUAUUACGCAGA, the “self-splicing fitness (ln)” value was -2.74 ± 0.32 (30 °C) and -2.71 ± 0.34 (37 °C).
In the case of GUAUAGCAAUAUUACGCCGA, the “self-splicing fitness (ln)” value is, setting by setting: (30 °C) -2.97 ± 0.41; (37 °C) -0.946 ± 0.36.
For GUAUAGCAAUAUUACGGAAC, the “self-splicing fitness (ln)” value (30 °C) was -3.32 ± 0.15 and the “self-splicing fitness (ln)” value (37 °C) is -1.77 ± 0.13.
As for GUAUAGCAAUAUUACGGCAC, the “self-splicing fitness (ln)” value (30 °C) was -0.331 ± 0.3.
On to GUAUAGCAAUAUUACGGGAA, for which the “self-splicing fitness (ln)” value (37 °C) is -2.54 ± 0.4.
For the sequence GUAUAGCAAUAUUACGGUGU, the “self-splicing fitness (ln)” value runs as follows: (30 °C) -3.29 ± 0.15; (37 °C) -1.38 ± 0.11.
The corresponding values for GUAUAGCAAUAUUACGUGAA are -3.69 ± 0.25 and -1.67 ± 0.17.
With GUAUAGCAAUAUUACGUGCU, the “self-splicing fitness (ln)” value was -2.77 ± 0.16 (30 °C) and -1.91 ± 0.22 (37 °C).
The like results for GUAUAGCAAUAUUACGUGUC were, in that order, -4.58 ± 0.39 and -1.42 ± 0.14.
For the sequence GUAUAGCAAUAUUACGUGUG, the “self-splicing fitness (ln)” value runs as follows: (30 °C) -3.28 ± 0.14; (37 °C) -2 ± 0.13.
Consider GUAUAGCAAUAUUACGUUUU, for which the “self-splicing fitness (ln)” value was -1.97 ± 0.2 (30 °C) and -2.37 ± 0.28 (37 °C).
For the sequence GUCAAGCAAUAUUACGAAGG, the “self-splicing fitness (ln)” value by setting is: (30 °C) -4.64 ± 0.2; (37 °C) -3.95 ± 0.36.
As for GUCAAGCAAUAUUACGAAGU, the “self-splicing fitness (ln)” value runs as follows: (30 °C) -2.51 ± 0.092; (37 °C) -1.16 ± 0.1.
GUCAAGCAAUAUUACGACCU: the “self-splicing fitness (ln)” value (30 °C) was -3.31 ± 0.41 and the “self-splicing fitness (ln)” value (37 °C) was -0.756 ± 0.46.
The like results for GUCAAGCAAUAUUACGAGUU were, in that order, -3.15 ± 0.15 and -0.638 ± 0.093.
Take GUCAAGCAAUAUUACGAUUC: the “self-splicing fitness (ln)” value reads like this: (30 °C) -1.76 ± 0.17; (37 °C) 0.0525 ± 0.15.
Consider GUCAAGCAAUAUUACGCAAC, for which the “self-splicing fitness (ln)” value by setting is: (30 °C) -4.34 ± 0.26; (37 °C) -2.36 ± 0.34.
For GUCAAGCAAUAUUACGCCCU, the “self-splicing fitness (ln)” value reads like this: (30 °C) -0.585 ± 0.16; (37 °C) 0.51 ± 0.15.
Take GUCAAGCAAUAUUACGCCGC: the “self-splicing fitness (ln)” value was -2.83 ± 0.28 (30 °C) and -2.35 ± 0.46 (37 °C).
With GUCAAGCAAUAUUACGCGCG, the “self-splicing fitness (ln)” value was -2 ± 0.13 (30 °C) and -1.32 ± 0.15 (37 °C).
For GUCAAGCAAUAUUACGCGGG, the “self-splicing fitness (ln)” value by setting is: (30 °C) -4.2 ± 0.2; (37 °C) -3.33 ± 0.24.
Turning to GUCAAGCAAUAUUACGGCCC, the “self-splicing fitness (ln)” value (30 °C) was -0.498 ± 0.33.
For GUCAAGCAAUAUUACGGGAU, the “self-splicing fitness (ln)” value reads like this: (30 °C) -5.19 ± 0.27; (37 °C) -2.96 ± 0.21.
With GUCAAGCAAUAUUACGGGCG, the “self-splicing fitness (ln)” value reads like this: (30 °C) -3.08 ± 0.17; (37 °C) -0.583 ± 0.13.
As for GUCAAGCAAUAUUACGGGGA, the “self-splicing fitness (ln)” value (37 °C) was -2.77 ± 0.44.
As for GUCAAGCAAUAUUACGGUAC, the “self-splicing fitness (ln)” value by setting is: (30 °C) -3.07 ± 0.15; (37 °C) -0.924 ± 0.11.
For GUCAAGCAAUAUUACGGUGA, the “self-splicing fitness (ln)” value reads like this: (30 °C) -2.82 ± 0.21; (37 °C) -2.22 ± 0.21.
Regarding GUCAAGCAAUAUUACGUAAG, the “self-splicing fitness (ln)” value reads like this: (30 °C) -2.15 ± 0.073; (37 °C) -1.57 ± 0.11.
Take GUCAAGCAAUAUUACGUAGG: the “self-splicing fitness (ln)” value runs as follows: (30 °C) -3.17 ± 0.14; (37 °C) -2.28 ± 0.15.
Take GUCAAGCAAUAUUACGUUCG: the “self-splicing fitness (ln)” value is, setting by setting: (30 °C) -2.63 ± 0.12; (37 °C) -2.1 ± 0.15.
GUCCAGCAAUAUUACGACAA: the “self-splicing fitness (ln)” value by setting is: (30 °C) -1.57 ± 0.14; (37 °C) -0.902 ± 0.11.
The corresponding values for GUCCAGCAAUAUUACGACAC are 1.02 ± 0.18 and 0.572 ± 0.24.
On to GUCCAGCAAUAUUACGACGG, for which the “self-splicing fitness (ln)” value (30 °C) is -3.49 ± 0.2 and the “self-splicing fitness (ln)” value (37 °C) was -2.66 ± 0.23.
With GUCCAGCAAUAUUACGAGGG, the “self-splicing fitness (ln)” value by setting is: (30 °C) -2.29 ± 0.24; (37 °C) -1.78 ± 0.24.
The like results for GUCCAGCAAUAUUACGCACA were, in that order, -1 ± 0.16 and 0.0214 ± 0.12.
The corresponding values for GUCCAGCAAUAUUACGCCAU are -2.78 ± 0.15 and -1.48 ± 0.14.
Take GUCCAGCAAUAUUACGCCGG: the “self-splicing fitness (ln)” value is -2.64 ± 0.17 (30 °C) and -2.69 ± 0.31 (37 °C).
The like results for GUCCAGCAAUAUUACGCCUC were, in that order, -0.866 ± 0.12 and 0.705 ± 0.15.
Take GUCCAGCAAUAUUACGCUCG: the “self-splicing fitness (ln)” value by setting is: (30 °C) -0.909 ± 0.15; (37 °C) -1.3 ± 0.22.
The corresponding values for GUCCAGCAAUAUUACGGAAG are -0.697 ± 0.079 and 0.124 ± 0.084.
Take GUCCAGCAAUAUUACGUCCC: the “self-splicing fitness (ln)” value was -0.702 ± 0.12 (30 °C) and 0.424 ± 0.12 (37 °C).
As to GUCCAGCAAUAUUACGUCGA, the “self-splicing fitness (ln)” value (30 °C) was -0.796 ± 0.2 and the “self-splicing fitness (ln)” value (37 °C) is -0.589 ± 0.19.
Turning to GUCCAGCAAUAUUACGUCUU, the “self-splicing fitness (ln)” value (30 °C) was -0.409 ± 0.081 and the “self-splicing fitness (ln)” value (37 °C) amounted to 0.275 ± 0.092.
As for GUCCAGCAAUAUUACGUGAA, the “self-splicing fitness (ln)” value (30 °C) is 0.0486 ± 0.079 and the “self-splicing fitness (ln)” value (37 °C) is 0.617 ± 0.098.
As to GUCCAGCAAUAUUACGUGCA, the “self-splicing fitness (ln)” value by setting is: (30 °C) -1.55 ± 0.09; (37 °C) -0.54 ± 0.1.
The like results for GUCCAGCAAUAUUACGUGCU were, in that order, -4.08 ± 0.46 and 0.0205 ± 0.18.
The corresponding values for GUCCAGCAAUAUUACGUGUU are -1.52 ± 0.055 and -0.617 ± 0.068.
Turning to GUCCAGCAAUAUUACGUUGA, the “self-splicing fitness (ln)” value (30 °C) is -0.801 ± 0.057 and the “self-splicing fitness (ln)” value (37 °C) is -0.239 ± 0.071.
The corresponding values for GUCCAGCAAUAUUACGUUGG are -3.27 ± 0.15 and -2.13 ± 0.17.
Consider GUCGAGCAAUAUUACGACCU, for which the “self-splicing fitness (ln)” value (37 °C) is -1.74 ± 0.26.
GUCGAGCAAUAUUACGACGA: the “self-splicing fitness (ln)” value by setting is: (30 °C) -3.05 ± 0.35; (37 °C) -1.28 ± 0.21.
Turning to GUCGAGCAAUAUUACGACUA, the “self-splicing fitness (ln)” value was -1.67 ± 0.23 (30 °C) and -1.28 ± 0.18 (37 °C).
The like results for GUCGAGCAAUAUUACGAUGU were, in that order, -0.956 ± 0.059 and -0.601 ± 0.084.
Regarding GUCGAGCAAUAUUACGCACU, the “self-splicing fitness (ln)” value was -1.47 ± 0.14 (30 °C) and -0.953 ± 0.18 (37 °C).
